Data taken from article PMC3197142, “Direct Identification of Insulator Components by Insertional Chromatin Immunoprecipitation” (PLoS ONE, 2011).

T1: GST-Matrin-3 (human, UniProt P43243-1 1-847)
T1 construct: human Matrin-3, cDNA GenBank NM_199189, inserted downstream of the GST gene in pGEX-6P-1; also called GST-fused Matrin-3; pGEX-Matrin-3; source: E. coli BL21-CodonPlus(DE3)-RIPL, purified (Glutathione Sepharose 4B); not shown: GST, N-terminal, kept
T1 sequence (looked up): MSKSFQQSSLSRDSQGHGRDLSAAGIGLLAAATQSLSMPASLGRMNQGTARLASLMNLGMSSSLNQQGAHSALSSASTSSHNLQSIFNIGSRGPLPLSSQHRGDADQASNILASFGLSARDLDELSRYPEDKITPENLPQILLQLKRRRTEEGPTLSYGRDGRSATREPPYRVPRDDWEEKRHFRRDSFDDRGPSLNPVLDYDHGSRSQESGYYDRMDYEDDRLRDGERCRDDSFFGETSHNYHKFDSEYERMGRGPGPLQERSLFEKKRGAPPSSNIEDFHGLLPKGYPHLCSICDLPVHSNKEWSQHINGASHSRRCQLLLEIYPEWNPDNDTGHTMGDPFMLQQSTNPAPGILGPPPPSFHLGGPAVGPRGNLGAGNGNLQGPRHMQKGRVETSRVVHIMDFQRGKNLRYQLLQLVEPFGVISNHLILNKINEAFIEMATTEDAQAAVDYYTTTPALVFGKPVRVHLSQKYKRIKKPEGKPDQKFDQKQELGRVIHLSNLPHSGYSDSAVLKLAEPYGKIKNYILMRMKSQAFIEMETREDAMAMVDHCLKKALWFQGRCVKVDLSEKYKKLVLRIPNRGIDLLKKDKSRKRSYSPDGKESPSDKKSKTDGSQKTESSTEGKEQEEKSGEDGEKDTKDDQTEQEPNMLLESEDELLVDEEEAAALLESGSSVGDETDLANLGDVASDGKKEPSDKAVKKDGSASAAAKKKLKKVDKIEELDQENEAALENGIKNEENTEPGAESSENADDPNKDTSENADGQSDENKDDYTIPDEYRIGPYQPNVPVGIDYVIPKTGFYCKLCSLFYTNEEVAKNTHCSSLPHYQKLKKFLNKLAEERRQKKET

B1: MBP-p68 (natural protein, human, UniProt P17844-1 1-614, looked up)
chain: MSGYSSDRDRGRDRGFGAPRFGGSRAGPLSGKKFGNPGEKLVKKKWNLDELPKFEKNFYQEHPDLARRTAQEVETYRRSKEITVRGHNCPKPVLNFYEANFPANVMDVIARQNFTEPTAIQAQGWPVALSGLDMVGVAQTGSGKTLSYLLPAIVHINHQPFLERGDGPICLVLAPTRELAQQVQQVAAEYCRACRLKSTCIYGGAPKGPQIRDLERGVEICIATPGRLIDFLECGKTNLRRTTYLVLDEADRMLDMGFEPQIRKIVDQIRPDRQTLMWSATWPKEVRQLAEDFLKDYIHINIGALELSANHNILQIVDVCHDVEKDEKLIRLMEEIMSEKENKTIVFVETKRRCDELTRKMRRDGWPAMGIHGDKSQQERDWVLNEFKHGKAPILIATDVASRGLDVEDVKFVINYDYPNSSEDYIHRIGRTARSTKTGTAYTFFTPNNIKQVSDLISVLREANQAINPKLLQLVEDRGSGRSRGRGGMKDDRRDRYSAGKRGGFNTFRDRENYDRGYSSLLKRDFGAKTQNGVYSAANYTNGSFGSNFVSAGIQTSFRTGNPTGTYQNGYDSTQQYGSNVPNMHNGMNQQAYAYPATAAAPMIGYPMPTGYSQ
notes: human p68 (DDX5), cDNA GenBank NM_004396, inserted downstream of the MBP gene in pMAL-x5c; also called p68/DDX5; source: E. coli BL21-CodonPlus(DE3)-RIPL, purified (Amylose resin); not shown: MBP, N-terminal, kept
B2: MBP-CTCF (natural protein, human, UniProt P49711-1 1-727, looked up)
chain: MEGDAVEAIVEESETFIKGKERKTYQRRREGGQEEDACHLPQNQTDGGEVVQDVNSSVQMVMMEQLDPTLLQMKTEVMEGTVAPEAEAAVDDTQIITLQVVNMEEQPINIGELQLVQVPVPVTVPVATTSVEELQGAYENEVSKEGLAESEPMICHTLPLPEGFQVVKVGANGEVETLEQGELPPQEDPSWQKDPDYQPPAKKTKKTKKSKLRYTEEGKDVDVSVYDFEEEQQEGLLSEVNAEKVVGNMKPPKPTKIKKKGVKKTFQCELCSYTCPRRSNLDRHMKSHTDERPHKCHLCGRAFRTVTLLRNHLNTHTGTRPHKCPDCDMAFVTSGELVRHRRYKHTHEKPFKCSMCDYASVEVSKLKRHIRSHTGERPFQCSLCSYASRDTYKLKRHMRTHSGEKPYECYICHARFTQSGTMKMHILQKHTENVAKFHCPHCDTVIARKSDLGVHLRKQHSYIEQGKKCRYCDAVFHERYALIQHQKSHKNEKRFKCDQCDYACRQERHMIMHKRTHTGEKPYACSHCDKTFRQKQLLDMHFKRYHDPNFVPAAFVCSKCGKTFTRRNTMARHADNCAGPDGVEGENGGETKKSKRGRKRKMRSKKEDSSDSENAEPDLDDNEDEEEPAVEIEPEPEPQPVTPAPPPAKKRRGRPPGRTNQPKQNQPTAIIQVEDQNTGAIENIIVEVKKEPDAEPAEGEEEEAQPAATDAPNGDLTPEMILSMMDR
notes: source: E. coli BL21-CodonPlus(DE3)-RIPL, purified (Amylose resin); not shown: MBP, N-terminal, kept

Molecular target: T1, GST-Matrin-3
Experiment: pull-down; purified GST-Matrin-3 (50 ng) incubated with purified MBP-fused proteins (50 ng) in Interaction Buffer (20 mM Tris pH 8.0, 137 mM NaCl, 1.5 mM MgCl2, 1 mM EGTA, 0.1% Triton X-100, 10% glycerol), 1.5 h at 4°C; captured on Glutathione Sepharose 4B; immunoblot with anti-MBP Ab
Settings: both partners purified

| Binder | binding result |
| --- | --- |
| B1 | binds |
| B2 | binds |
